Measurements reported in patent publication US20230085439A1.

What was measured:
[1] = target: trimeric hMPV B2 F protein treated with trypsin (human metapneumovirus); test: ELISA on coated antigen, mAb titrated; panel hMPV B2 F trimer (trypsin), key 6
[2] = target: monomeric hMPV B2 F protein treated with trypsin (human metapneumovirus); test: ELISA on coated antigen, mAb titrated; panel hMPV B2 F monomer (trypsin), key 6
[3] = target: hMPV 130-BV (human metapneumovirus); test: biolayer interferometry, hMPV 130-BV on anti-penta-HIS biosensors; unit inferred
[4] = target: pre-fusion RSV F protein A2 SC-TM (respiratory syncytial virus) (UniProt P03420); test: ELISA on coated antigen, mAb titrated; EC50 box, key 6

DS7 (antibody)
EC50 [1]: 0.18 mg/L | EC50 [2]: 0.1 mg/L

101F Fab
Kd [3]: 0.053 µM

MPE8 (antibody)
EC50 [4]: 0.087 mg/L
